The target in experiment [1] is T1, GV27 peptide (ER-α36 c-terminal 27 aa) (human).
T1 construct: also called 27 aa peptide (F domain); 27-amino acid peptide derived from the F domain of ER-α36
T1 peptide: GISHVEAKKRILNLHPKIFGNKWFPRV
Kind of experiment: Biacore; table head says human ER-α36, analyte taken as the GV27 peptide of Example 5.

Experiment [2] concerns the target T1, GV27 peptide (ER-α36 c-terminal 27 aa). The experiment in a line: ELISA on the coated 27-aa peptide, antibody in 5-fold dilutions from 10 ug/ml.
For experiment [3] the target is unchanged. The experiment is described as above.
In experiment [4] the target is T2, biotinylated GV27 peptide (human, biotinylated (site not stated)).
T2 construct: also called antigen (biotinylated GV27 peptide)
T2 peptide: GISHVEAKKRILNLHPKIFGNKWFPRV
The experiment in a line: competition ELISA: plate coated with SNGhB1 (1 µg/ml), biotinylated GV27 added together with the soluble antibody, streptavidin-HRP; the sheet labels the soluble antibody SNGhB1, the legend paragraph 64 and paragraph 314 to paragraph 316 name SNGmB1. Here is the method:
(§1) The antigen (biotinylated GV27 peptide) was added along with different amount of the competing mouse antibody, the ELISA plates were then allowed to incubate for equilibrium before wash. Streptavidin-HRP (Sigma, S2438, 1:5000) and TMB substrate (Biopanda, China) were added and OD450 was measured on a plate reader. IgG were tested in parallel as control antibody.

In experiment [5] the target is T3, Fc-LBD-D27 (Fc-LBD with the C-terminal 27 amino acids deleted) (human, UniProt P03372 339-456).
T3 construct: also called Fc-LBD with 27 amino acids deleted; not shown: Fc
T3 chain: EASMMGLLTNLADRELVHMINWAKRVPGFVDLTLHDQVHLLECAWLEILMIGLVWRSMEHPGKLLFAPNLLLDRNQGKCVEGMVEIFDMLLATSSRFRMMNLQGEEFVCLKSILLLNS
Kind of experiment: ELISA, plate coated with Fc-LBD-D27 at 1 ug/ml, HRP anti-mouse IgG Fc. How it is done: (§2) Five different proteins were used to coat the assay plate at 1 μg/ml.

Experiment [6] concerns the target T4, Fc-LBD (fusion protein of Fc and ER-α36 ligand binding domain including the C-terminal 27 amino acids) (human).
T4 construct: Expressed in E. coli BL21 (DE3); No linker is described; also called Fc-ER-α36 LBD; not shown: Fc fused to the N terminal of the LBD
T4 chain: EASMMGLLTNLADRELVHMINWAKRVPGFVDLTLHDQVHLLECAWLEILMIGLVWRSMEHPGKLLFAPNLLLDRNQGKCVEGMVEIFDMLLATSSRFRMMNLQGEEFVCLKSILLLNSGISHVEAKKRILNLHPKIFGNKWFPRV
Kind of experiment: ELISA, plate coated with Fc-LBD at 1 ug/ml, SNGmB1 in 5-fold dilutions from 10 ug/ml, HRP anti-mouse IgG Fc. Here is the method:
as §2

For experiment [7], the target named is T1, GV27 peptide (ER-α36 c-terminal 27 aa). Kind of experiment: Biacore, antibody captured on anti-mouse Fc, GV27 injected.
Experiment [8] deals with T2, biotinylated GV27 peptide. Kind of experiment: competition ELISA: plate coated with hybridoma SNGmB1 (1 µg/ml), biotinylated GV27 added together with soluble SNGmB1, streptavidin-HRP. Here is the method: as §1
The target of experiment [9] is T5, Fc-ER66 (fusion protein of Fc and ER-α66 ligand binding domain) (human, UniProt P03372 302-595, limits assumed).
T5 construct: also called Fc-ER-α66 protein; not shown: Fc
T5 sequence (looked up): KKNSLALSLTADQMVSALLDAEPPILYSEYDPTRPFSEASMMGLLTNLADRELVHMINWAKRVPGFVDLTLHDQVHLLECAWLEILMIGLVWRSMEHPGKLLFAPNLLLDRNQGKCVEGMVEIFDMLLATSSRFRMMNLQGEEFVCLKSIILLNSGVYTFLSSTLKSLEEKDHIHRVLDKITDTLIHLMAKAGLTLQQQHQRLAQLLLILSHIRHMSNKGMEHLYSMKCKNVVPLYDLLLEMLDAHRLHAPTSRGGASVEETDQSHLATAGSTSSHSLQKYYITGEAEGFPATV
Kind of experiment: ELISA, plate coated with Fc-ER66 at 1 ug/ml, HRP anti-mouse IgG Fc. How it is done: as §2

Experiment [10] deals with T2, biotinylated GV27 peptide. Kind of experiment: competition ELISA: plate coated with humanized SNGmB1 ('hzdSNGmB1', 1 µg/ml), biotinylated GV27 added together with soluble SNGmB1, streptavidin-HRP. Here is the method:
as §1

Experiment [11] concerns the target T1, GV27 peptide (ER-α36 c-terminal 27 aa). Kind of experiment: ELISA, plate coated with the 27-aa peptide at 1 ug/ml, SNGmB1 in 5-fold dilutions from 10 ug/ml, HRP anti-mouse IgG Fc. Here is the method: as §2

Consider eight molecules from patent publication US20160046721A1 (BEIJING SHENOGEN PHARMA GROUP, published 2016).

Positions count from the first letter of the chain named. In names and notes the source's numbering stands. Several values for one entry are separate records, joined by “and”; a condition that tells them apart may be missing. Equal entries are not always repeated.

B1: SNGHZD (C1L + C5H) (antibody, human IgG1, kappa, V domains shown)
VH: QVQLVQSGAEVKKPGASVKVSCKASGYTFTSHNMHWVRQAPGQGLEWIGAIHPVNGDTAYNQKFKGKATLTVDKSTSTAYLELSSLRSEDTAVYYCAREGYGSVDYWGQGTLVTVSS
VL: ETTVTQSPAFMSATPGDKVNISCITSTDIDDDMNWYQQKPGEAPILIISEGNTLRPGIPPRFSSSGYGTDFTLTINNIESEDAAYYFCLQSDNLPLTFGQGTKLEIKR
notes: Humanized antibody, human IgG1/kappa, expressed in 293E6 cells; also called humanized SNGmB1 variant C1L + C5H
As to B1, in [1], the Kd was 164 pM, the koff is 0.000122 s⁻¹ and the kon amounted to 744000 M⁻¹ s⁻¹.

B2: SNGHZD (C3L + C6H) (antibody, human IgG1, kappa, V domains shown)
VH: B1 VH with L81M
VL: B1 VL with S64G
notes: Humanized antibody, human IgG1/kappa; also called humanized SNGmB1 variant C3L + C6H
In experiment [1], B2 returned a Kd of 271 pM, a koff of 0.00036 s⁻¹ and an association rate constant (kon) of 1.33e+06 M⁻¹ s⁻¹.

B3: SNGHZD (C2L + C5H) (antibody, human IgG1, kappa, V domains shown)
VH: B1 VH
VL: B1 VL with P44A
notes: Humanized antibody, human IgG1/kappa; also called humanized SNGmB1 variant C2L + C5H
Turning to B3, in [2], the “EC50 (read off the curve)” value is approximately 0.04 µg/mL. In [1], this molecule registered a dissociation constant Kd of 130 pM, a koff of 0.000488 s⁻¹ and an on-rate constant (kon) of 3.46e+06 M⁻¹ s⁻¹.

B4: SNGHZD (C3L + C5H) (antibody, human IgG1, kappa, V domains shown)
VH: B1 VH
VL: B1 VL with S64G
notes: Humanized antibody, human IgG1/kappa; also called humanized SNGmB1 variant C3L + C5H
On to B4, for which, in experiment [1], the Kd was found to be 100 pM, the koff was found to be 0.000356 s⁻¹ and the kon came to 3.54e+06 M⁻¹ s⁻¹.

B5: SNGHZD (C1L + C6H) (antibody, human IgG1, kappa, V domains shown)
VH: B1 VH with L81M
VL: B1 VL
notes: Humanized antibody, human IgG1/kappa; also called humanized SNGmB1 variant C1L + C6H
In the case of B5, the “EC50 (read off the curve)” value in [3] is approximately 0.05 µg/mL. In experiment [1], this molecule had a Kd of 105 pM, a dissociation rate constant (koff) of 0.000302 s⁻¹ and an association rate constant (kon) of 2.89e+06 M⁻¹ s⁻¹.

B6: SNGHZD (C2L + C6H) (antibody, human IgG1, kappa, V domains shown)
VH: B1 VH with L81M
VL: B1 VL with P44A
notes: Humanized antibody, human IgG1/kappa; also called humanized SNGmB1 variant C2L + C6H
In experiment [1], B6 came in with an equilibrium dissociation constant (Kd) of 310 pM, an off-rate constant (koff) of 0.000398 s⁻¹ and an on-rate (kon) of 1.28e+06 M⁻¹ s⁻¹.

B7: SNGhB1 chimeric antibody (antibody, human IgG1, kappa)
light: ETTVTQSPASLSMTIGEKVTIRCITSTDIDDDMNWYRKKPGQPPKLLISEGNTLRPGVPSRFSSSGYGTDFVFTIENMLSEDVADYYCLQSDNLPLTFGAGTKLELKRTVAAPSVFIFPPSDEQLKSGTASVVCLLNNFYPREAKVQWKVDNALQSGNSQESVTEQDSKDSTYSLSSTLTLSKADYEKHKVYACEVTHQGLSSPVTKSFNRGEC
heavy: not shown
notes: Chimeric antibody: mouse V regions with human kappa and IgG1 constant regions; also called chimeric SNGmB1; SNGhB1(20111118)
For the molecule B7, the “IC50 (read off the curve)” value in experiment [4] was approximately 0.5 µg/mL. In experiment [1], this molecule showed an equilibrium dissociation constant (Kd) of 163 pM, an off-rate constant (koff) of 0.000283 s⁻¹ and a kon of 1.74e+06 M⁻¹ s⁻¹.

B8: SNGmB1 antibody (antibody, mouse IgG2b, kappa)
light: ETTVTQSPASLSMTIGEKVTIRCITSTDIDDDMNWYRKKPGQPPKLLISEGNTLRPGVPSRFSSSGYGTDFVFTIENMLSEDVADYYCLQSDNLPLTFGAGTKLELKRADAAPTVSIFPPSSEQLTSGGASVVCFLNNFYPKDINVKWKIDGSERQNGVLNSWTDQDSKDSTYSMSSTLTLTKDEYERHNSYTCEATHKTSTSPIVKSFNRNEC
heavy: QAYLQQSGAELVRPGASVKMSCKASGYTFTSHNMHWIKQTPRQGLEWIGAIHPVNGDTAYNQKFKGKATLTVDKSSSTAYLQLSSLTSEESAVYFCAREGYGSVDYWGQGTTLTVSSAKTTPPSVYPLAPGCGDTTGSSVTLGCLVKGYFPESVTVTWNSGSLSSSVHTFPALLQSGLYTMSSSVTVPSSTWPSQTVTCSVAHPASSTTVDKKLEPSGPISTINPCPPCKECHKCPAPNLEGGPSVFIFPPNIKDVLMISLTPKVTCVVVDVSEDDPDVQISWFVNNVEVHTAQTQTHREDYNSTIRVVSTLPIQHQDWMSGKEFKCKVNNKDLPSPIERTISKIKGLVRAPQVYILPPPAEQLSRKDVSLTCLVVGFNPGDISVEWTSNGHTEENYKDTAPVLDSDGSYFIYSKLNMKTSKWEKTDSFSCNVRHEGLKNYYLKKTISRSPGK
notes: Mouse monoclonal antibody from a hybridoma, mIgG2b; Several lots were tested; also called HBD-B1; hybridoma derived SNGmB1
As for B8, the binding result in [5] and in experiment [9] was “no binding (tested: 10 ug/ml)” throughout. Also, the “EC50 (read off the curve)” value in [6] was approximately 0.05 µg/mL; in experiment [11], approximately 0.6 µg/mL. For the same molecule, the Kd in experiment [7] was approximately 100 pM. In addition, the “IC50 (read off the curve)” value in experiment [8] and in experiment [10] was approximately 0.5 µg/mL in each case. The off-rate (koff) in experiment [1] is 0.000129 s⁻¹ and 0.000319 s⁻¹. Besides, in [1], the kon was 2.12e+06 M⁻¹ s⁻¹ and 1.76e+06 M⁻¹ s⁻¹.
